Results reported in publication PMC11982451 (The Journal of Biological Chemistry, 2025).

Target: T1, 2CARD domain of human RIG-I, residues 1-200, recombinant (human, UniProt O95786 1-200)
T1 sequence (looked up): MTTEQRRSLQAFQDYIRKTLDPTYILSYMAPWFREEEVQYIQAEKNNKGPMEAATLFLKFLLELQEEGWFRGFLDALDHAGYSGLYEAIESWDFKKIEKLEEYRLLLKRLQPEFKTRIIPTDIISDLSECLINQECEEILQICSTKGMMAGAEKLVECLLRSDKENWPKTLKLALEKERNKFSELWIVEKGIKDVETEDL
Test: NMR titration

binding result: binds
B1: PRYSPRY domain (PSpry) of human TRIM25, residues 433-630, recombinant (domain or fragment, UniProt Q14258 433-630, looked up)
chain: STSLKAKVLETFLAKSRPELLEYYIKVILDYNTAHNKVALSECYTVASVAEMPQNYRPHPQRFTYCSQVLGLHCYKKGIHYWEVELQKNNFCGVGICYGSMNRQGPESRLGRNSASWCVEWFNTKISAWHNNVEKTLPSTKATRVGVLLNCDHGFVIFFAVADKVHLMYKFRVDFTEALYPAFWVFSAGATLSICSPK
